Test results: patent US20210002623

Tests used:
peptide YFLMNENRYTSWNSE = biological target: T1, peptide YFLMNENRYTSWNSE
T1 chain: YFLMNENRYTSWNSE

[1] = biological target: T2, H-Trp-Phe-Tyr-Ser(PO3H2)-Pro-Arg-pNA
T2 chain: WFYSPR

B1: PhTET2 (leucyl aminopeptidase of Pyrococcus horikoshii) (protein)
chain: MEVRNMVDYELLKKVVEAPGVSGYEFLGIRDVVIEEIKDYVDEVKVDKLGNVIAHKKGEGPKVMIAAHMDQIGLMVTHIEKNGFLRVAPIGGVDPKTLIAQRFKVWIDKGKFIYGVGASVPPHIQKPEDRKKAPDWDQIFIDIGAESKEEAEDMGVKIGTVITWDGRLERLGKHRFVSIAFDDRIAVYTILEVAKQLKDAKADVYFVATVQEEVGLRGARTSAFGIEPDYGFAIDVTIAADIPGTPEHKQVTHLGKGTAIKIMDRSVICHPTIVRWLEELAKKHEIPYQLEILLGGGTDAGAIHLTKAGVPTGALSVPARYIHSNTEVVDERDVDATVELMTKALENIHELKI
- time necessary to hydrolyse 50% of the peptide, at 40 °C (peptide YFLMNENRYTSWNSE): 0.5 h for PhTET2 compared to 3,9 h for MjTET at 40 °C

B2: MjTET (TET aminopeptidase of Methanocaldococcus jannaschii, product of gene MJ0555) (protein)
chain: MSVVEYLKKLSKLHGISGREDSVREFMKKELEKYCDSVEIDNFGNLIAKRGNKGKKIMIAAHMDEIGLMVKYIDDNGFLKFTKIGGIYDPTILNQKVVVHGSKGDLIGVLGSKPPHRMKEEEKTKIIKYEDMFIDIGAESREEAIEMGVNIGTWVSFLSEVYDLGKNRLTGKAFDDRVGCAVLLEVMKRLSEEDIDCQVYAVGTVQEEVGLKGARVSAFKINPDVAIALDVTIAGDHPGIKKEDAPVDLGKGPVVGIVDASGRGLIAHPKVLDMIKAVSEKYKIDVQWEVGEGGTTDATAIHLTREGIPTGVISVPARYIHTPVEVIDKRDLEKTVELVYNCIKEVNNFF
- peptide hydrolysis followed by reverse phase HPLC [1]: After 5 minutes, the original peptide substrate was almost hydrolyzed and four peptide products were detected
- time necessary to hydrolyse 50% of the peptide, at 20 °C (peptide YFLMNENRYTSWNSE): 75 h
- time necessary to hydrolyse 50% of the peptide, at 30 °C (peptide YFLMNENRYTSWNSE): 55 h
- time necessary to hydrolyse 50% of the peptide, at 40 °C (peptide YFLMNENRYTSWNSE): 3.9 h
- time necessary to hydrolyse 50% of the peptide, at 50 °C (peptide YFLMNENRYTSWNSE): 1.3 h
- time necessary to hydrolyse 50% of the peptide, at 60 °C (peptide YFLMNENRYTSWNSE): 1 h
- time necessary to hydrolyse 50% of the peptide, at 70 °C (peptide YFLMNENRYTSWNSE): 0.6 h
- time necessary to hydrolyse 50% of the peptide, at 80 °C (peptide YFLMNENRYTSWNSE): 0.25 h
